# Experimental data from article PMC11306251, “An integrative structural study of the human full-length RAD52 at 2.2 Å resolution” (Communications Biology, 2024).
# T1: FL-RAD52 (Homo sapiens, UniProt P43351 1-418)
# T1 sequence: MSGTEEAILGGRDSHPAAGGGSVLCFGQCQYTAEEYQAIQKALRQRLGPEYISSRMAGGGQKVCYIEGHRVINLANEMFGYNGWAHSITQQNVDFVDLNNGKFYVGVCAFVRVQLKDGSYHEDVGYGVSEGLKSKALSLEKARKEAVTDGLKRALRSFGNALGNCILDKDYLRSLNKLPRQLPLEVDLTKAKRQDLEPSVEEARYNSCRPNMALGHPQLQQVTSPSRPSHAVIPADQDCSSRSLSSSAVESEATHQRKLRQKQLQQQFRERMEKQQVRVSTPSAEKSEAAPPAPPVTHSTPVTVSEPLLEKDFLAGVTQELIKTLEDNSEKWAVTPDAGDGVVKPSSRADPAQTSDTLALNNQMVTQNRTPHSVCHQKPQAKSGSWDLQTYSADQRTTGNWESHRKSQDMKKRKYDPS
# B1: Human full-length RAD52 (FL-RAD52), 6xHis-tagged (natural protein, UniProt P43351 1-418, looked up)
# chain: T1 sequence
# notes: Human RAD52, full length, 418 amino acids (47 kDa); expression vector pET15b (Addgene, number not given); In the MST experiment the copy held at constant concentration was labelled with RED-NHS (amine dye NT-647-NHS); No tag cleavage is described; the SAXS deposit is named 'His-Tagged full-length'; also called DNA repair protein RAD52 homolog; source: E. coli BL21 (DE3) Rosetta pLysS, purified …
# How the values were obtained:
# [1] = target: the molecule itself; assay: MST; apparent; RED-NHS labelled FL-RAD52 constant at 10 nM, unlabelled FL-RAD52 0.7 nM-25 μM; 25 °C; 25 mM Hepes pH 7.5, 5% glycerol, 250 mM NaCl, 0.05% Tween 20; step of self-association not stated
# FL-RAD52 = target: T1, FL-RAD52; assay: fluorescence polarization; apparent Kd; 10 nM DNA; FP: 25 mM Tris-HCl pH 7.5, 62.5 mM NaCl, 5% glycerol, 1 mM DTT, room temperature, 15 min; settings: protein: recombinant; tags: His-tag (pET15b); label: 5'-6-FAM; single strand
Binder,Kd [1],Kd (FL-RAD52)
B1,13 µM,
TTTTTTTTTTTTTTTTTTTTTTTTTTTTTT (ssDNA) [dT30 ssDNA],,0.0372 ± 0.0004 µM
